Eight molecules from patent US11898183B2, “Programmed microorganisms to attenuate a disease” (priority 2020, dated 2024) can be followed below.

The subject of the data set is pathway specific substrates. Description: Enzyme functionality of pathway enzyme homologs and fusion constructs in lysed E. coli cell extracts, product by HPLC. To be noted: protein expressed in E. coli, lysed cell extract, pathway specific substrate, HPLC. It is filed as biochemical, E. coli BL21. How it is done: As per one of the possible implementations of the present disclosure, two proteins—cinnamate-4-hydroxylate (C4H) and 4-coumaroyl CoA-ligase (4CL) were expressed as one fusion protein. Also, other two proteins which were expressed as one fusion protein were hydroxycinnamoyl-CoA quinate hydroxycinnamoyltransferase (HCT) and p-coumaroyl quinate 3′-hydroxylase (HCTC3H). The fusion gene and the corresponding fusion protein was prepared using the following method. […] The enzyme fusion constructs were made for the selected genes (Table 5). Pathway genes and the fusion constructs were individually cloned in E. coli expression vector pET28+ under T7 promoter and transformed in E. coli BL21 cells. Recombinant bacterial cells were induced with IPTG and enzyme functionality was tested with pathway specific substrates (Table 5) using lysed E. coli cell extracts. HPLC analysis was carried out to quantify the product formation and in turn shortlisting of efficient enzymes for functional pathway assembly towards Etoposide in E. coli.
The E. coli transformants were grown overnight at 37° C. in 1 ml of M9 minimal media containing ampicillin (100 mg/1), in 96-well format. The next day, 150 μl of each culture was inoculated into 3 ml M9 minimal media containing ampicillin (100 mg/1), IPTG 0.1 mM in 24-well format, and incubated at 30° C. and 200 rpm for ˜20 hours. The following day, cells were spun down and pellets were resuspended in 100 μl of lysis buffer containing 10 mM Tris-HCl pH 8, 5 mM MgCl2, 1 mM CaCl2) and complete mini protease inhibitor EDTA-free (3 tablets/100 ml) (Hoffmann-La Roche, Basel, Switzerland) and frozen at −80° C. for at least 15 minutes to promote cell lysis. Pellets were thawed at room temperature and 50 μl of DNase mix (1 μl of 1.4 mg/ml DNase in H2O (˜80000 u/ml), 1.2 μl of MgCl2 500 mM and 47.8 μl of 4×PBS buffer solution) was added to each well. Plates were shaken at 500 rpm for 5 min at room temperature to allow degradation of genomic DNA. Plates were spun down at 4000 rpm for 30 min at 4° C. and six μl of the lysates were used in in vitro using appropriate substrates for enzymes as per Table 6. In each case, the resulting compounds were measured by HPLC. Results were analysed in comparison with the lysates expressing the corresponding controls (the empty plasmid). […]

B1: CCoAOMT Chamaecyparis formosensis: Caffeoyl CoA O-methyltransferase (CCoAOMT) from Chamaecyparis formosensis (protein)
chain: MATVEATKDSTQQVSRHQEVGHKSLLQSDALYQYILETSVYPREPEPMRELREITAKHPWNLMTTSADEGQFLHLLLKLINAKNTMEIGVYTGYSLLSTALALPDDGKILAMDINRENYELGLPVIQKAGVAHKIDFREGPALPVLDQMLENKEMHGSFDFIFVDADKDNYLNYHKRLIDLVKIGGVIGYDNTLWNGSVVAPPDAPMRKYVRYYRDFVIELNKALAADPRIEISQIPVGDGITLCRRII
modifications: Depicts the nucleic acid sequence of Caffeoyl CoA O-methyltransferase (CCoAOMT) of Chamaecyparis formosensis
B1 gave an enzyme activity of 95%.

B2: CYP71 Cinnamomum micranthum: CYP71 from Cinnamomum micranthum (protein)
chain: MALLLSLLFFASALIFLLKLNGQRANKTDVPPSPPKLPLIGNLHQLGTLPHRSLRSLAGKYGPLMLLYLGRIPTLIVSSEEMAEQIMKTHDLIFASRPSITAAKELLYGCTDLAFASYGEYWRQVRKMCVLELLSIKRVNSFRSIMEEEVGLMIERISQSSSTGAAVNLAELFLSLTGGTIARAALGKKYEGEAEEGRNKYADLVKELHALLGAFSVGDYFPSLAWVDVVTGLHGKLKRNSRELDRFLDQVIEHHLMRPLDGCDVGEHTDLVDVMLQVQKDSNRDIHLTRDNIKAIILDMFSAGTDTTALTLEWVMAELAKHPNVMKKAQGEVRRVVDVKANISEEHLCQLNYMKSIIKETLRLHPPAPLLVPRESTTNVKIQNFHIPPKTRVFINAYAIGRDPTSWENPEEFLPERFANNSVDFKGQDFQFIPFGAGRRGCPGLSFAITSLELALANLLYWFDWELPQGVTEEDLDMSEALGITVHKKLPLYLVPKNHFS
modifications: Depicts the nucleic acis sequence encoding CYP71 of Cinnamomum micranthum
B2 returned an enzyme activity of 94%.

B3: 2-ODD Nitrospira moscoviensis: 2-oxoglutarate/Fe(II)-dependent dioxygenase (2-ODD) from Nitrospira moscoviensis (protein, listed as Nitrospira moscoviensis)
chain: MVSNMAMGITEAVDRAVAALDVDRLHREYWEQNEFLVIRQFLPRAFVEEVLVPQAQGVKTELNRNYIPGHKKGGSVSYYTVRRRAPLFLDLYRSDSFRAFLDRLVDAKLLLCPENDPHSCALYYYTEPGDHIGFHYDTSYYKGARYTILMGLVDRSTQCKLVCELFKDHPTKAPQRLELITEPGDMVIFNGDKLWHAVTPLGEGEERIALTMEYVTNPEMGAFKRLYSNLKDSFAYFGLKTVFKQALAKKSS
Turning to B3, the enzyme activity amounted to 96%.

B4: SDH Juglans regia: Secoisolariciresinol dehydrogenase (SDH) from Juglans regia (protein, listed as Juglans regia)
chain: MNGTSSLLAPIAKRLAGKVALITGGASGIGESTARLFAEQGAKVIIADVQDELGFSVSQDKSINGAISYIHCDVTSESDVQNAVNTAVSKHGKLDIMFNTAGCTGQNKASILDHEQKDYKTVFDVNVLGSFLGAKHAAKVMIPVKRGTILFTASCVTESHGLASHSYTASKHAVVGLTKNLCVELGQYGIRVNCISPYGAATPLFLKGMGIDKKEKAEEILSSAANLKGPVLEAGDLAEAALFLASEESKYVSVLNLVVDGGYSATNVAFTETIQKFFT
Molecule B4 displayed an enzyme activity of 99%.

B5: OMT Sinopodophyllum hexandrum: O-methyltransferase 3 (OMT) from Sinopodophyllum hexandrum (protein)
chain: MEMAPTMDLEIRNGNGYGDSGEELLAAQAHIYNHIFNFISSMALKCAVELNIPEILHNHQPKAVTLSELVQALQIPQAKSACLYRLLRILVHSGFFAITKIQSEGDEEGYLPTLSSKLLLKNHPMSMSPCLLGLVNPTMVAPMHFFSDWFKRSDDMTPFEATHGASLWKYFGETPHMAEIFNEAMGCETRLAMSVVLKECKGKLEGISSLVDVGGGTGNVGRAIAEAFPNVKCTVLDLPQVVGNLKGSNNLEFVSGDMFQFIPPADVVFLKWILHDWNDEECIKILKRCKEAIPSKEEGGKLIIIDMVVNDHNKGSYESTETQLFYDLTLMALLTGTERTETEWKKLFVAAGFTSYIISPVLGLKSIIEVFP
modifications: Depicts the nucleic acid sequence encoding O-methyltransferase 3 (OMT) of Sinopodophyllum hexandrum
notes: O-methyltransferase 3 (OMT) from Sinopodophyllum hexandrum
B5 had an enzyme activity of 99%.

B6: CCoAOMT Eleocharis dulcis: Caffeoyl CoA O-methyltransferase (CCoAOMT) from Eleocharis dulcis (protein)
chain: MSTTTTTQTKTETQSQTGAQNGAEQQTRHSEVGHKSLLQSDALYQYILETSVYPREPECMKELRDITAKHPWNLMTTSADEGQFLNLLLKLIGAKKTMEIGVYTGYSLLATALAIPEDGTILAMDINRENYELGLPVIEKAGVAHKIDFREGPALPVLDQLIEDPANLGSFDFIFVDADKDNYLNYHKRLIELVKVGGVIGYDNTLWNGSVVLPADAPMRKYIRYYRDFVLELNKALAADPRIEISQLPVGDGITLCRRVK
modifications: Depicts the nucleic acid sequence encoding Caffeoyl CoA O-methyltransferase (CCoAOMT)
Molecule B6 had an enzyme activity of 61%.

B7: CYP719 Cinnamomum micranthum: CYP719 from Cinnamomum micranthum (protein)
chain: MEAIWTAVAIGIAAAVLMAFRGRQRQRLSRKPTQWPPGPTRLPLIGNMHQILLKGGDPFHVAINKLAQVYGPLMTVWFGTRQPTIIVSDHNLVWEVLVSKSADYAAREIPITLKPSLADFRTIVSSNAGPLWHSLRRGLQNGAIGPHSLSLQAPFQESDMAQMINNMIKEANLNGGVVKPFPHIRRAIIKLLARICFGCDFSDEEFDATMDFMVEEALRYSDDSRILDTFPPARFLPSVKRAVMQMEKVKLRLMECIGRPLDSPLPPTCYAHFLLSQSFPREVAIFSIFELFLLGVDSTGSTTMWGLGLLMQNQEAQQKLYQEIREHASCNEKGVVKVEELGKLEYLQAVAKETMRMKPIAPLAVPHQAARDTTLDGLHVAEGTTVLANLYALHYDPKVWDEPERFKPERFLESSKEFLGKRGQYSFLPFGAGMRACAGMEVGKLQLPFAICNLVNAFNWSNVVEKEAPKLIEGFSFILSMKTPLEARIVPRGI
modifications: Depicts the nucleic acid sequence encoding CYP719 of Cinnamomum micranthum
For the molecule B7, the “enzyme activity (in words)” value is on record as “highest enzyme activity”.

B8: DIRPLR Linum usitatissimum: Bifunctional pinoresinol-lariciresinol reductase (DIRPLR) from Linum usitatissimum (protein, listed as Linum usitatissimum)
chain: MGRCRVLVVGGTGYIGKRIVKASIEHGHDTYVLKRPETGLDIEKFQLLLSFKKQGAHLVEASFSDHESLVRAVKLVDVVICTVSGAHSRSLLLQLKLVEAIKEAGNVKRFIPSEFGMDPARMGDALEPGRETFDLKMVVRKAIEDANIPHTYISANCFGGYFVGNLSQLGPLTPPSDKVTIYGDGNVKVVYMDEDDVATYTIMTIEDDRTLNKTMYFRPPENVITHRQLVETWEKLSGNQLQKTELSSQDFLALMEGKDVAEQIVIGHLYHIYYEGCLTNFDIDADQDQVEASSLYPEVEYTRMKDYLMIYL
In the case of B8, the “enzyme activity (in words)” value is reported as “desirable enzyme activity”.
